Substrate in data set [1]: O=C1c2c(O)cc(O)cc2O[C@H](c2cc(O)c(O)c(O)c2)[C@H]1O
Put plainly: cells, lysate or membranes. It counts as biochemical, Angelonia angustifolia. The settings on record: NADPH, pH 6.5, 25 °C (standard assay), yeast protein fraction, labelled compound.

Substrate in data set [2]: O=C1c2c(O)cc(O)cc2O[C@H](c2ccc(O)c(O)c2)[C@H]1O
The data set is described as follows: cells, lysate or membranes. The settings on record: NADPH, pH 6.5, 25 °C (standard assay), yeast protein fraction, labelled compound. It counts as biochemical, Angelonia angustifolia.

The values below come from publication PMC4169556, “Isolation of Dihydroflavonol 4-Reductase cDNA Clones from Angelonia x angustifolia and Heterologous Expression as GST Fusion Protein in Escherichia coli” (PLoS ONE, 2014).

B1: Ang.DFR2 (Angelonia angustifolia) (protein)
chain: METTATQPPPPSSAAAVPATVCVTGAAGFIGSWLVMKLLQRGYNVRATVRDPGNLKKIKHLTQLPKADTNLTLWKADLMEEASFDEAIEGCQGVFHLATPMEFDSKDPENEVIKPTIEGMMSIIRSCAKAKTVEKVIFTTSAGTLNVEEHQKPFYDETSWSDLDFIYSKKMTGWMYFVSKYLAEKQAVEAAKLNNIEFISIIPPVVVGPFINPAFPPSLVTALSPITGNEAHYTIMKQGQFVHLDDICEAHIFLFEHPKADGRYICSSHDATIYDIARLIRDKWPEYNVPMEFKGIDKDIPVVRFSSKKLTSMGFKFKYSLEDMYRGAIETCREKGLLPYSTHNQSNGEKKESTLQSLEKHSDDQEKVLEKRVNGRLDKQFEEQKKELLPIREEKHTNGSLEKCSDDQAKVLLPLPEEKQTNGSLEKHVMINIKTCE
notes: full-length ORF, 437 residues; pYES2.1/V5-His-TOPO in S. cerevisiae INVSc1, protein fraction, not purified
Regarding B1, the Michaelis-Menten constant (Km) (usually the concentration of substrate that gives half-maximal velocity) in data set [1] is given as 6.5 µM; in data set [2], 11 µM.
